This note sets out measurements from patent US20050123978.

This data set has as its target T1, recombinant ANX7 (human annexin VII) (UniProt P20073).
T1 sequence: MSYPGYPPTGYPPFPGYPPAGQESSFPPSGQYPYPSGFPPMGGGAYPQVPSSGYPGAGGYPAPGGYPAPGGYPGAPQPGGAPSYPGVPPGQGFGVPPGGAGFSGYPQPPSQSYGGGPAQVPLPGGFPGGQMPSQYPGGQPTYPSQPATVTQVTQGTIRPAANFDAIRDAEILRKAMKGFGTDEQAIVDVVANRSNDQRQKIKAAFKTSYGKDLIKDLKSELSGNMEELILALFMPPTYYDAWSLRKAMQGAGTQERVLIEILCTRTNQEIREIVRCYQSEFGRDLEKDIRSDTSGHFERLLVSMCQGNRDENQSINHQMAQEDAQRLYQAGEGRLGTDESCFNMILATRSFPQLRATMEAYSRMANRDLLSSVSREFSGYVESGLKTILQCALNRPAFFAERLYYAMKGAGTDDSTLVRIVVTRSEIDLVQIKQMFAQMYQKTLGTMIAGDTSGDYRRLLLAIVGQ
For Ca^2+/calmodulin Kinase II, the “in vitro phosphorylation of recombinant ANX7” value is “no activity was detected when recombinant ANX7 was exposed to casein kinase 1, casein kinase II, or Ca^2+/calmodulin kinase II”. Same read-out and setting: next, Casein kinase I: “no activity was detected when recombinant ANX7 was exposed to casein kinase 1, casein kinase II, or Ca^2+/calmodulin kinase II”. Take cAMP-dependent protein Kinase: the “molar ratio of ^32[P]/ANX7 protein after a 30-minute incubation” value is given as “PKA (molar ratio=1.0)”. On the same count and under the same terms, the value for cGMP-dependent protein kinase was “PKG (molar ratio=1.0)”. As to casein Kinase II, the “in vitro phosphorylation of recombinant ANX7” value is given as “no activity was detected when recombinant ANX7 was exposed to casein kinase 1, casein kinase II, or Ca^2+/calmodulin kinase II”. In the case of epidermal growth factor receptor kinase, the “molar ratio of ^32[P]/ANX7 protein after a 30-minute incubation” value is recorded as “only five were active ... EGFR kinase (molar ratio not determined)”. On the same count and under the same terms, the value for protein kinase C was “PKC (molar ratio=2.0)”. Still for that read-out and setting: the value for tyrosine kinase p60^src was “p60^src (molar ratio=1.0)”.
